# In patent US20230272054A1, “COMBINATION THERAPIES FOR THE TREATMENT AND PREVENTION OF BIOFILMS” (priority 2020, published 2023):
# Entries after “also recorded” stand apart in the source; their conditions may differ. Where two headings read alike, the source gives them in different places.
# B1: mHMGB1 (C45S), recombinant human HMGB1 with an engineered single amino acid mutation C45S (other)
# chain: MGKGDPKKPRGKMSSYAFFVQTCREEHKKKHPDASVNFSEFSKKSSERWKTMSAKEKGKFEDMAKADKARYEREMKTYIPPKGETKKKFKDPNAPKRPPSAFFLFCSEYRPKIKGEHPGLSIGDVAKKLGEMWNNTAADDKQPYEKKAAKLKEKYEKDIAAYRAKGKPDAAKKGVVKAEKSKKKKEEEEGEEDEEDEEEEEDEEDEDEEEDDDDE
# notes: also called modified HMGB1
# B2: mHMGB1: recombinant human HMGB1 with engineered single amino acid mutation C45S, SEQ ID NO: 52 (protein)
# chain: B1 chain
# modifications: mHMGB1 (C45S)
# What was measured:
# HMGB1 full-length = settings: CITED Xin et al., 2000; Table 1 lists under mHMGB1, p605 says full-length HMGB1; cited from earlier work
# [1] = biological target: T1, IHFNTHI, native integration host factor (DNABII protein) of nontypeable Haemophilus influenzae (nontypeable Haemophilus influenzae …, UniProt P43723 1-96; P43724 1-94)
# T1 sequence 1: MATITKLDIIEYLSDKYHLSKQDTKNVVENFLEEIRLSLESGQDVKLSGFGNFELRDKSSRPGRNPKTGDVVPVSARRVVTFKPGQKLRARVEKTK
# T1 sequence 2: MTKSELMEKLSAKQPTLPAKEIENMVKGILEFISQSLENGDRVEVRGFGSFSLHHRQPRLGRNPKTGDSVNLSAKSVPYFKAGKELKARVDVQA
# [2] = biological target: T2, HUNTHI, native histone-like protein HU (DNABII protein) of nontypeable Haemophilus influenzae (nontypeable Haemophilus influenzae …, UniProt P43722 1-90)
# T2 sequence: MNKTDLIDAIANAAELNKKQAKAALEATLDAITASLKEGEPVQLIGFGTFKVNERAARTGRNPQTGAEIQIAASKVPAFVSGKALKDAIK
# [3] = biological target: T2, HUNTHI, native histone-like protein HU …; test: SPR (Biacore); mHMGB1 immobilised, HUNTHI injected; the text value differs from Table 1 (103)
# HJ DNA = test: Electrophoretic mobility shift assay (EMSA), binding to HJ DNA; settings: 20 nM 6-carboxyfluorescein HJ DNA, 50-500 nM protein, non-denaturing PAGE
# Procedure: Arrows indicate the HJ DNA-protein complex.
# FIG. 11A provides that NEM-modified rHMGB1 was confirmed by triton acetic acid urea gel (TAU gel). […] Arrows indicate the HJ DNA-protein complex.
# Electrophoretic mobility shift assay (EMSA): EMSA was performed as previously described (Devaraj et al., 2019).
# [4] = test system: eDNA lattice within K. pneumoniae biofilms; test: Visualization of eDNA lattice structure within K. pneumoniae biofilms (immunofluorescence, CLSM); type: cell-based, Klebsiella pneumoniae; settings: 24 h K. pneumoniae biofilms, 200 nM protein, 16 h
# Text: Per the model as disclosed herein, HMGB1 would compete with DNABII proteins, wherein instead of stabilization, HMGB1 would de-stabilize these HJ-like structures and consequently disrupt the biofilm.
# Human neutrophils = test: NET formation by neutrophils incubated with HMGB1 isoforms (CLSM); type: cell-based; settings: 200 nM protein, 3.5 h
# Procedure: Neutrophils were fixed, then labeled as described above to visualize the NETs.
# Visualization of NETs structure upon incubation of neutrophils with various isoforms of HMGB1: Human neutrophils were isolated from blood using the EASYSEP™ isolation kit (Stemcell Technologies Inc.). […] NETs were fixed in formalin, blocked with 10% normal goat serum (Life Technologies), and labeled with α-dsDNA monoclonal antibody (1 μg), and α-neutrophil elastase polyclonal antibody (1 μg) or naive rabbit and mouse isotype controls (1 μg) in 200 μl PBS for 16 h hours at 4° C. NETs were washed with PBS and incubated for 1 h with 1:200 dilution goat α-rabbit IgG conjugated to ALEXAFLUOR® 594, goat α-mouse IgG conjugated to ALEXAFLUOR® 488, and 1:500 dilution wheat germ agglutinin conjugated to ALEXAFLUOR® 350 (PMN membrane stain). NETs were imaged with a Zeiss LSM 800 confocal microscope (Carl Zeiss Inc.) and rendered with Zeiss Zen software.
# [5] = Inflammatory cell recruitment into lungs of B. cenocepacia-challenged mice (H&E, flow cytometry of BAL); type: in vivo, C57BL/6 mice; settings: B. cenocepacia-challenged mice, 0.2 nmol, 72 hpi
# neutrophils in BAL = test: as above; type: in vivo, C57BL/6 mice; settings: B. cenocepacia-infected and simultaneously treated, 0.2 nmol, 18 hpi
# NTHI biofilms = test: Disruption of NTHI biofilms in the middle ears of chinchillas with experimental otitis media; type: in vivo, chinchilla (Chinchilla lanigera); settings: 200 nM mHMGB1 and/or 342 nM Fabs
# Procedure: As a negative control, an equivalent volume of sterile saline was delivered. One day after receipt of the second therapeutic dose, all animals were sacrificed and NTHI within the middle ear biofilms was enumerated. The relative amount of mucosal biofilm and mucosal inflammation were also qualitatively assessed.
# First, effectiveness of single treatment was evaluated. To this end, a subset of animals in each cohort was sacrificed one day after receipt of a single therapeutic dose (FIG. 16H) whereas the remaining animals in each cohort were sacrificed 24 h after receipt of a second treatment.
# Chinchilla model of experimental otitis media (OM): Adult chinchillas (Chinchilla lanigera) were obtained from Rauscher's Chinchilla Ranch, LLC. These outbred, non-specific pathogen-free animals were randomly divided into cohorts based on body weight and both male and female animals were enrolled. […] A concentration of 342 nM was based on prior studies wherein 5 μg intact IgG per 0.1 ml volume was injected into the middle ears of chinchillas (Goodman et al., 2011; Novotny et al., 2016; and Novotny et al., 2019).
# Disruption of NTHI biofilms resident within the middle ears of chinchillas with experimental OM: Both middle ears of each animal were challenged with 1000 CFU NTHI strain 86-028NP by direct injection to induce experimental OM. Four days later, NTHI mucosal biofilms fill >50% of the middle ear (Novotny et al., 2011). […] To determine the outcome of treatment, animals were sacrificed one day after completion of antibody therapy, images of mucosal biofilms captured with a Zeiss SV6 dissecting microscope, then mucosal biofilms and middle ear mucosa collected, homogenized and plated on to chocolate agar to semi-quantitate the non-planktonic bacterial load within the middle ear (Goodman et al., 2011). […] As an additional assessment, the amount of biofilm in each middle ear was qualitatively determined. […] For both quantitation of bacterial load and qualitative assessment of mucosal biofilm, each middle ear was considered independent.
# [6] = test system: pro-inflammatory and anti-inflammatory cytokines; test: Quantitation of cytokines in middle ear fluids (cytometric bead array); type: in vivo, chinchilla (Chinchilla lanigera); settings: six days after NTHI challenge, one day after completion of treatment
# Procedure: Quantitation of cytokines in middle ear fluids: To quantitate cytokines in middle ear fluids (MEF), a BD™ Cytometric Bead Array was performed with fluids collected at the time of animal sacrifice. With BD™ human-specific Flex Sets, each MEF was individually examined for relative quantity of IL-1β, IL-4, IL-6, IL-8, IL-10, IL12-p70, IL-13, IL-17A, TNF or IFNγ according to manufacturer's instructions. MEFs from each animal were assayed individually. Data were captured on a BD ACCURI™ C6 cytometer (BD Biosciences) and analyzed with FlowJo software (FlowJo, LLC). The concentration of cytokines in each MEF was determined using a standard curve and calculated using GraphPad Prism software.
# B. cenocepacia = test: Murine model of lung infection by B. cenocepacia, bacterial burden; settings: 0.2 nmol i.t. at 24 hpi; 72 hpi; α-EF-Tu labeling
# Procedure: Intratracheal challenge of the murine lung with B. cenocepacia and treatment with HMGB1 isoforms: B. cenocepacia strain K56-2, was cultured in LB broth (Difco, Md.) at 37° C. overnight at 200 rpm. Bacterial concentration was adjusted before each experiment based on OD at 600 nm. C57BL/6 mice were infected intratracheally (i.t.) with 10^7 colony forming units (CFU) of B. cenocepacia. […] Animals were euthanized 24 or 48 hpi, and bronchoalveolar lavage (BAL) was collected with 1 ml of PBS plus 1 mM EDTA. […] The slides were permeabilized with 0.5% Triton X-100 for 10 minutes, blocked with 10% normal goat serum (Abcam) for 30 minutes and stained with a monoclonal antibody against E. coli Elongation Factor-Tu (α-EF-Tu; cross reacts with B. cenocepacia) (LSBio) overnight to label B. cenocepacia. The samples were then stained with goat α-mouse IgG Alexa Fluor 488 (Abcam) for 1 h at RT, mounted with fluoroshield media with DAPI (Abcam), visualized via the Nikon Eclipse Ti at 40× magnification (Nikon Instrument Inc. Americas) and analyzed by ImageJ software (NIH). To enumerate bacterial burden, the animals were euthanized 18 or 72 hpi, bronchoalveolar lavage was collected with 1 ml of PBS plus 1 mM EDTA, an aliquot of BAL was serially diluted and plated on LB agar. […] Neither animals nor samples were excluded from evaluation in any study.
# UPEC biofilms = test: Disruption of 24 h UPEC biofilms in vitro (CLSM, COMSTAT average thickness); settings: mHMGB1 200 nM, 16 h
# E. faecium biofilms = test: Disruption of 24 h E. faecium biofilms in vitro (CLSM, COMSTAT average thickness); settings: 24 h biofilms, 1 h incubation; non-bactericidal dose
# [7] = test system: biofilms formed by UPEC, B. cenocepacia, NTHI, Enterobacter spp, S. aureus, K. pneumoniae, A. baumanii, P. aeruginosa, E. faecium; test: Disruption of 24 h bacterial biofilms in vitro by HMGB1 isoforms (LIVE/DEAD stain, CLSM, COMSTAT average thickness); settings: 24 h biofilms of nine pathogens; 200 nM protein, 16 h (S. aureus 800 nM rHMGB1; E. faecium 800 nM, 1 h)
molecule,measurement,setting,value
HJ DNA (cited),Kd,HMGB1 full-length,10 nM
B1,Kd,[1],579 nM
same,Kd,[2],103 nM
same,Kd,[3],104 nM
B2,binding to HJ DNA (EMSA),HJ DNA,maintained its ability to bind HJ DNA; also recorded: retained its ability to bind to HJ DNA
same,biofilm bacteria (FilmTracer FM 4-64),[4],substantial reduction in biofilm bacteria
same,web-like eDNA lattice structure within biofilm,[4],disruption of the web-like structure; also recorded: notably disrupted
same,induction of NET formation by neutrophils,Human neutrophils,intertwined NETs specifically formed; also recorded: more strongly induced NET formation
same,infiltration of inflammatory cells into lungs (H&E),[5],no signs of inflammation
same,neutrophils in BAL (flow cytometry),neutrophils in BAL,eliminated the pro-inflammatory activity; also recorded: significant reduction of neutrophils in BAL compared to those treated with rHMGB1
same,middle ears that cleared NTHI / culture-negative,"NTHI biofilms; 24 h after one dose, 6 middle ears",50%
same,NTHI in middle ears after two doses,NTHI biofilms; 24 h after second dose,further reduced
same,relative amount of remaining NTHI mucosal biofilm,NTHI biofilms; one or two doses,highly effective
same,IL-10 in middle ear fluids,[6],significantly elevated concentration; also recorded: statistically significant increase
same,B. cenocepacia stained within the lung tissue,B. cenocepacia,significantly reduced bacterial load
same,UPEC biofilm disruption in the presence of CbpA (negative control),UPEC biofilms,could still disrupt UPEC biofilms
same,UPEC biofilm disruption in the presence of exogenously added RuvA,UPEC biofilms; competitor dose-dependent,lost in the presence of competitors; also recorded: unable to disrupt biofilms formed by UPEC
same,"dose required to achieve a similar reduction in biofilm average thickness, E. faecium",E. faecium biofilms,required a higher dose
same,biofilm average thickness compared to control,[7],significantly disrupted bacterial biofilms; also recorded: fully retained the anti-biofilm activity
